B1: Carbonic anhydrase-related protein (Homo sapiens), P35219 (parent)
chain: MADLSFIEDTVAFPEKEEDEEEEEEGVEWGYEEGVEWGLVFPDANGEYQSPINLNSREARYDPSLLDVRLSPNYVVCRDCEVTNDGHTIQVILKSKSVLSGGPLPQGHEFELYEVRFHWGRENQRGSEHTVNFKAFPMELHLIHWNSTLFGSIDEAVGKPHGIAIIALFVQIGKEHVGLKAVTEILQDIQYKGKSKTIPCFNPNTLLPDPLLRDYWVYEGSLTIPPCSEGVTWILFRYPLTISQLQIEEFRRLRTHVKGAELVEGCDGILGDNFRPTQPLSDRVIRAAFQ
B2: U4/U6 small nuclear ribonucleoprotein Prp31 (Homo sapiens), Q8WWY3 (parent)
chain: MSLADELLADLEEAAEEEEGGSYGEEEEEPAIEDVQEETQLDLSGDSVKTIAKLWDSKMFAEIMMKIEEYISKQAKASEVMGPVEAAPEYRVIVDANNLTVEIENELNIIHKFIRDKYSKRFPELESLVPNALDYIRTVKELGNSLDKCKNNENLQQILTNATIMVVSVTASTTQGQQLSEEELERLEEACDMALELNASKHRIYEYVESRMSFIAPNLSIIIGASTAAKIMGVAGGLTNLSKMPACNIMLLGAQRKTLSGFSSTSVLPHTGYIYHSDIVQSLPPDLRRKAARLVAAKCTLAARVDSFHESTEGKVGYELKDEIERKFDKWQEPPPVKQVKPLPAPLDGQRKKRGGRRYRKMKERLGLTEIRKQANRMSFGEIEEDAYQEDLGFSLGHLGKSGSGRVRQTQVNEATKARISKTLQRTLQKQSVVYGGKSTIRDRSSGTASSVAFTPLQGLEIVNPQAAEKKVAEANQKYFSSMAEFLKVKGEKSGLMST
partner: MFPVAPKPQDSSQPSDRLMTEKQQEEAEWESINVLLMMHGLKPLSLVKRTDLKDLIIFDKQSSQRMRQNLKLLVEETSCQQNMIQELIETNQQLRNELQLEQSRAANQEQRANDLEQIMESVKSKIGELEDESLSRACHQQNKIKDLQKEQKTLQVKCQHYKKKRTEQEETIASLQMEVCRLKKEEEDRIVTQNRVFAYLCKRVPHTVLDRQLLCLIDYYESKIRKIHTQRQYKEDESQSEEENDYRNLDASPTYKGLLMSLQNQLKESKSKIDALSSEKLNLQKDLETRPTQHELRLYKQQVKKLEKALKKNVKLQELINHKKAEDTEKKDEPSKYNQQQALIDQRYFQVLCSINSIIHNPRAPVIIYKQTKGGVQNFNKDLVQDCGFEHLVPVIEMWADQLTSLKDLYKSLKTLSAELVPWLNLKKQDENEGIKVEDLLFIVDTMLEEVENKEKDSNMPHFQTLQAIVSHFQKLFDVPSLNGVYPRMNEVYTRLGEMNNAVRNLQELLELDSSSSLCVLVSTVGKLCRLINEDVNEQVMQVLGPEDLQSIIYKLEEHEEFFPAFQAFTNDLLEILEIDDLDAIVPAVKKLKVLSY
B3: PiggyBac transposable element-derived protein 1 (Homo sapiens), Q96JS3 (parent)
chain: MYEALPGPAPENEDGLVKVKEEDPTWEQVCNSQEGSSHTQEICRLRFRHFCYQEAHGPQEALAQLRELCHQWLRPEMHTKEQIMELLVLEQFLTILPKELQPCVKTYPLESGEEAVTVLENLETGSGDTGQQASVYIQGQDMHPMVAEYQGVSLECQSLQLLPGITTLKCEPPQRPQGNPQEVSGPVPHGSAHLQEKNPRDKAVVPVFNPVRSQTLVKTEEETAQAVAAEKWSHLSLTRRNLCGNSAQETVMSLSPMTEEIVTKDRLFKAKQETSEEMEQSGEASGKPNRECAPQIPCSTPIATERTVAHLNTLKDRHPGDLWARMHISSLEYAAGDITRKGRKKDKARVSELLQGLSFSGDSDVEKDNEPEIQPAQKKLKVSCFPEKSWTKRDIKPNFPSWSALDSGLLNLKSEKLNPVELFELFFDDETFNLIVNETNNYASQKNVSLEVTVQEMRCVFGVLLLSGFMRHPRREMYWEVSDTDQNLVRDAIRRDRFELIFSNLHFADNGHLDQKDKFTKLRPLIKQMNKNFLLYAPLEEYYCFDKSMCECFDSDQFLNGKPIRIGYKIWCGTTTQGYLVWFEPYQEESTMKVDEDPDLGLGGNLVMNFADVLLERGQYPYHLCFDSFFTSVKLLSALKKKGVRATGTIRENRTEKCPLMNVEHMKKMKRGYFDFRIEENNEIILCRWYGDGIISLCSNAVGIEPVNEVSCCDADNEEIPQISQPSIVKVYDECKEGVAKMDQIISKYRVRIRSKKWYSILVSYMIDVAMNNAWQLHRACNPGASLDPLDFRRFVAHFYLEHNAHLSD

In the first assay the parent is B1. The settings on record: with int7_human INTS7, Q9NVH2.
Chain of int7_human INTS7, Q9NVH2 (Q9NVH2 whole entry): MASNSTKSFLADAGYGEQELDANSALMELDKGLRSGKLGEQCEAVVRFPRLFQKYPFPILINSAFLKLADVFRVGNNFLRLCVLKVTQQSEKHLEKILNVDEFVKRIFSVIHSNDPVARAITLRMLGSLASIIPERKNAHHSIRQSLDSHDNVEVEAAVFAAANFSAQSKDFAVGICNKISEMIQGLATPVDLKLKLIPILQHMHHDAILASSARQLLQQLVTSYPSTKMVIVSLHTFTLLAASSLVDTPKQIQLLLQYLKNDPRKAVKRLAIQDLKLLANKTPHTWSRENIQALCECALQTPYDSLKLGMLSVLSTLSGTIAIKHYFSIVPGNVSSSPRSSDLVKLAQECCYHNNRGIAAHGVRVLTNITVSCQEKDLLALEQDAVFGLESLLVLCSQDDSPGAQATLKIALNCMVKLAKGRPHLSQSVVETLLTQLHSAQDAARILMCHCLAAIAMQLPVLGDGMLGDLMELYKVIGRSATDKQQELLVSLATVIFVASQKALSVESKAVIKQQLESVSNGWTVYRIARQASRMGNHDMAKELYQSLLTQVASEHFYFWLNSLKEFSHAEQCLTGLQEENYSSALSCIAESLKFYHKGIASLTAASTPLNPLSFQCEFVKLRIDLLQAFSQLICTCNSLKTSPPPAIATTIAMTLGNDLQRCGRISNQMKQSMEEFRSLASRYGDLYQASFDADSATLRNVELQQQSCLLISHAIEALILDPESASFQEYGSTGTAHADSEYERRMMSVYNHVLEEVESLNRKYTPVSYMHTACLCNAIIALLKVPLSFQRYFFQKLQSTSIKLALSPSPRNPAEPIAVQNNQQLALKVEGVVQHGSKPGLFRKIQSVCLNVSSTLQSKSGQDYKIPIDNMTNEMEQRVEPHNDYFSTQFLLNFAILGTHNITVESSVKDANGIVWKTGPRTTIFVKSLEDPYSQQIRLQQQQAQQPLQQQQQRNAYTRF
Turning to S100P, the “effect of a mutation on the interaction” value was “disrupting interaction strength”.

The variants in a further assay derive from B1. The conditions noted are these: with crx_human CRX.
Turning to S100P, the “effect of a mutation on the interaction” value is listed as “disrupting interaction strength”.

In the next assay the parent is B2. The conditions noted are these: with cep70_human CEP70, Q8NHQ1.
For the variant L107V, the “effect of a mutation on the interaction” value is “with no effect”.

Variants of B3 are the subject of another assay. The conditions noted are these: with NR4A1, P22736-2.
Chain of NR4A1, P22736-2 (P22736 other isoform, or with tags, fused parts or gaps): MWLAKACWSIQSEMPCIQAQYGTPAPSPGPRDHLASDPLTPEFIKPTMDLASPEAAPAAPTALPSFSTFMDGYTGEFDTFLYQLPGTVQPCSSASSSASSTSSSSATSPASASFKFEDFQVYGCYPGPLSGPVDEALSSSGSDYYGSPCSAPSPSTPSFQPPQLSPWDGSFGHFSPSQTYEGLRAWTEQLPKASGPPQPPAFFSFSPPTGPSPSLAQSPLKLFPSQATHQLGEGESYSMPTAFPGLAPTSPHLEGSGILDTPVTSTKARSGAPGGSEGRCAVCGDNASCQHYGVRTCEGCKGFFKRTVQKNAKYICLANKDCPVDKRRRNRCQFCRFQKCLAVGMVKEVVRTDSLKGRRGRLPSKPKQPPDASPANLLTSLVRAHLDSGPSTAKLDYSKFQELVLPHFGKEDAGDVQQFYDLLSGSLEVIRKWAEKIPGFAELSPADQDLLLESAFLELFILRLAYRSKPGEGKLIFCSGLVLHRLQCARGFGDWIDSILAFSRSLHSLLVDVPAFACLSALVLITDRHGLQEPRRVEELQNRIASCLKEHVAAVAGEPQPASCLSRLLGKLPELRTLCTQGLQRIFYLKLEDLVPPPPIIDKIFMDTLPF
Consider H806D, for which the “effect of a mutation on the interaction” value is recorded as “with no effect”.
As for G244E, the “effect of a mutation on the interaction” value was “with no effect”.
For the variant I678V, the “effect of a mutation on the interaction” value is recorded as “with no effect”.
Still for that read-out and setting: as for P256L, the entry is “with no effect”.

In a further assay the parent is B3. The settings on record: with znf24_human ZNF24, P17028.
Chain of znf24_human ZNF24, P17028 (P17028 whole entry): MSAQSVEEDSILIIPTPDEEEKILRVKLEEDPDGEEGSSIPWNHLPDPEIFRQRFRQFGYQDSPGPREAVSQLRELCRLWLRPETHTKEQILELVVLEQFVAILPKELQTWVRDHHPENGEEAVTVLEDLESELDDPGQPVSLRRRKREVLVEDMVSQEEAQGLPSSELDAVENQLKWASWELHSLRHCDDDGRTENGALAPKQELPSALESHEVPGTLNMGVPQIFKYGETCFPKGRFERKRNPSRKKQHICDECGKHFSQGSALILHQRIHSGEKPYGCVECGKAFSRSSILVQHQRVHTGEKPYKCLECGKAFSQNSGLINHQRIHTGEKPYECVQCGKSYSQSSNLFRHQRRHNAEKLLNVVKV
Consider H806D, for which the “effect of a mutation on the interaction” value was “with no effect”.
For the variant G244E, the “effect of a mutation on the interaction” value is on record as “with no effect”.
On the same count and under the same terms, as for I678V, the entry is “with no effect”.
Take P256L: the “effect of a mutation on the interaction” value is reported as “with no effect”.

In another assay the parent is B3. The settings on record: with zn496_human ZNF496, Q96IT1.
Chain of zn496_human ZNF496, Q96IT1 (Q96IT1 whole entry): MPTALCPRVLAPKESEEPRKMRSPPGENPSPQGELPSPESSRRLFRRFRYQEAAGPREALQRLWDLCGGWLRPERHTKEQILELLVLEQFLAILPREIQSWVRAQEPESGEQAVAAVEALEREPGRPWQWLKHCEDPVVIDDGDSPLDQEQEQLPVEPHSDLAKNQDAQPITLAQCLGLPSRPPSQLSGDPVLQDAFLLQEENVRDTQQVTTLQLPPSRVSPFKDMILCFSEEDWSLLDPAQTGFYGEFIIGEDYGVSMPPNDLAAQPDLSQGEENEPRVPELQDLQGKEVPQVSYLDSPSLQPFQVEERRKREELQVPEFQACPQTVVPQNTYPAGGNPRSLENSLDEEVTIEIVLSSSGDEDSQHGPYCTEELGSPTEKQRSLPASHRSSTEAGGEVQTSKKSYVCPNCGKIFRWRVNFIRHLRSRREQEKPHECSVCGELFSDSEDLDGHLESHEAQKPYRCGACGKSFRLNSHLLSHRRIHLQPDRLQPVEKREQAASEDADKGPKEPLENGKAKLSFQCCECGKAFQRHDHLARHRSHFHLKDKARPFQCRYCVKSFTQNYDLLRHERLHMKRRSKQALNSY
Regarding H806D, the “effect of a mutation on the interaction” value is recorded as “with no effect”.
Turning to G244E, the “effect of a mutation on the interaction” value is on record as “with no effect”.
As to I678V, the “effect of a mutation on the interaction” value is given as “with no effect”.
In the case of P256L, the “effect of a mutation on the interaction” value is “with no effect”.

Variants of B3 are the subject of a further assay. The settings on record: with zsc22_human ZSCAN22, P10073.
Chain of zsc22_human ZSCAN22, P10073 (P10073 whole entry): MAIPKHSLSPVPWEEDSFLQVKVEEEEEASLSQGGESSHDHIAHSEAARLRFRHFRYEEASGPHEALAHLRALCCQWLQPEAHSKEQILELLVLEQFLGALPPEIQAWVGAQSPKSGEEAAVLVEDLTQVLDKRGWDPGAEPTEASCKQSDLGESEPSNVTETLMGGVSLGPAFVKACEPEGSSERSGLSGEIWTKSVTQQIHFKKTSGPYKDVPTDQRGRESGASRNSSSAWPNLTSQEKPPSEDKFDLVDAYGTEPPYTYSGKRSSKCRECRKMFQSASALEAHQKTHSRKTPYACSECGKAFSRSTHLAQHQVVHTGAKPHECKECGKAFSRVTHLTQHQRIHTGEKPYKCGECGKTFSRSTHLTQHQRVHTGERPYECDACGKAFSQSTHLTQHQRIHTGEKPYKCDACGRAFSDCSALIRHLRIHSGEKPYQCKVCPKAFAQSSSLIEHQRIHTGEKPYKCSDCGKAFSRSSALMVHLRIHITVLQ
On to H806D, for which the “effect of a mutation on the interaction” value is recorded as “with no effect”.
With G244E, the “effect of a mutation on the interaction” value is “with no effect”.
For I678V, the “effect of a mutation on the interaction” value was “with no effect”.
Still for that read-out and setting: for P256L the value was “with no effect”.

Variants of B3 are the subject of a further assay. The conditions noted are these: with meox2_human MEOX2, P50222.
Chain of meox2_human MEOX2, P50222 (P50222 whole entry): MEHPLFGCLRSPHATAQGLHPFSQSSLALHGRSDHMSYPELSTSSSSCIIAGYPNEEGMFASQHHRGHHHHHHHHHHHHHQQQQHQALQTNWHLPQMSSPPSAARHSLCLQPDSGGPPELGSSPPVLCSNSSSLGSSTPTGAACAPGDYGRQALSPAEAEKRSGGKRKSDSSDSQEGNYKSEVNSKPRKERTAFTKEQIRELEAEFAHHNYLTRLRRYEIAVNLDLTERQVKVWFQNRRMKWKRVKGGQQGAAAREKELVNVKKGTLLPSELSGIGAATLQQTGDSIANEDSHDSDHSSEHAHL
In the case of H806D, the “effect of a mutation on the interaction” value is given as “with no effect”.
The same measure, in the same setting: as for G244E, the entry is “with no effect”; as for I678V, “with no effect”; as for P256L, “with no effect”.

Values taken from IntAct's records for PubMed 25910212.
